These results are taken from the RNAGym collection of RNA variant scans (doi:10.7554/elife.80360).

B1: Hairpin Ribozyme (parent)
chain: GUCCUCUUUCACGUGCGCGUGAAAGAGAGAAGUGAACCAGAGAAACACACGUUGUGGUAUAUUACCUGGUA

In this data set the parent is B1. Nature of the data set: self-cleavage, relative activity (ratio to wild type); higher = more cleavage; co-transcriptional.
For C46U G51A, the self-cleavage was found to be 0.132.
With C12A U63C the figure was 0.2; with U60A A71G, 0.839; with C6U G27C, 0.106.
With G1A A43C the figure was 0.144; with C10G C37U, 0.379; with A36G G42C, 0.347.
With C16A U52G the figure was 0.879; with U52A U67A, 0.307; with U60A U62A, 0.0542.
With C37G G56U, the self-cleavage was determined as 0.0996.
The figure for U7C U62A is 0.288.
With A24U G56A the figure was 0.212; with A24U C46G, 0.113; with C4A C10U, 0.261.
Take U14A G57U: the self-cleavage worked out at 0.195.
The figure for A31C C46A is 0.0889; for A43G U52G it is 0; for A24C G29C it is 0.208.
The figure for A31G U60C is 0.836; for U58A it is 0.742; for U14C A45U it is 0.119.
Turning to U9A G54A, the self-cleavage was 0.392.
The figure for A24C U70A is 0.985; for A11U C66G it is 0.0569.
The figure for C6G G15C is 0.545.
The figure for G54U U58C is 0.713.
As to A31U A36G, the self-cleavage came out at 0.151.
With A39U A49G the figure was 0.169.
With C12U G29A the figure was 0.164; with A39C C65U, 0.401.
With C4G G69C the figure was 0.193; with G17A G54A, 0.543.
As to C38U C65G, the self-cleavage was found to be 0.164.
The figure for A36U A71U is 0.524.
With G15A G25C the figure was 0.491; with C3A U7G, 0.703.
The figure for C4G G57C is 0.143; for C4A G42A it is 0.111; for C6U A23G it is 0.768.
As to G17C U55A, the self-cleavage stood at 0.257.
The figure for A26C G27C is 0.197; for U14A A61C it is 0.331; for C6U U20A it is 0.764.
With U9G G34C, the self-cleavage was found to be 0.833.
With A26C C48G the figure was 0.138; with G25C A61G, 0.115.
With C12A G25A the figure was 0.486.
With C4G G29C the figure was 0.0848; with U9A C12A, 0.377.
On to G32A U33C, for which the self-cleavage was 0.119.
As for U2C A23C, the self-cleavage was found to be 0.144.
The figure for A24G G27U is 0.303; for C4G C46A it is 0.102; for C3G C18G it is 0.34.
Turning to U2C G27C, the self-cleavage came out at 0.153.
With A24U A41U the figure was 1.17; with U60A A61C, 0.133; with A30U G56A, 0.127.
With A23G U58C the figure was 0.847.
With G13A A64U the figure was 0.258; with G68C G69A, 0.152; with C16U U52A, 1.01.
As for C16U A41G, the self-cleavage is 0.809.
With A43G C48G the figure was 0.139.
For G15A U60C, the self-cleavage is 0.853.
The figure for G51A A71C is 1.49.
Regarding A11U U58G, the self-cleavage amounted to 0.65.
With G51A G57A the figure was 0.142; with A45U C50G, 0.146.
With A35C U70C the figure was 1.01.
The figure for G17C A36G is 0.48; for G15U U53C it is 1.04.
On to C18G U20A, for which the self-cleavage is 0.772.
Take U14G A39U: the self-cleavage came out at 0.285.
The figure for G69C U70G is 0.657.
In the case of A43G A49U, the self-cleavage was determined as 0.197.
Regarding G51C U52A, the self-cleavage turned out to be 0.761.
Take G29U A44G: the self-cleavage was 0.142.
With U2C G34C the figure was 0.208; with A11U G13C, 0.737.
With A22G G25U the figure was 0.595; with C48A A49C, 0.155.
The figure for A39C G40C is 0.0323; for A28U A39C it is 0.337; for U5A U63C it is 0.196.
For U2C C66G, the self-cleavage amounted to 0.0316.
The figure for A41U A49G is 1.06; for C4G G19C it is 0.194; for G15U G40A it is 0.335.
The figure for U7G U9G is 0.599.
With G57U U58C the figure was 0.278; with U8G U52C, 0.617; with C38U U53C, 0.823.
Consider G42U C50A, for which the self-cleavage was found to be 0.189.
The figure for A22C C46A is 0.183; for U20A U62C it is 0.446.
With G13C A47U the figure was 0.109.
Consider G25A U60C, for which the self-cleavage was 0.976.
The figure for G1U A26C is 0.103; for A43U G54C it is 0.0498.
For the variant A22C G56C, the self-cleavage amounted to 0.243.
U2A G40U: the self-cleavage amounted to 0.129.
With C18G U62G the figure was 0.163; with A43C A47C, 0.0231; with C38U U60G, 0.431.
On to C10A C46G, for which the self-cleavage was 0.1.
For the variant A23U C66A, the self-cleavage came to 0.294.
The figure for U33A G68A is 0.161; for A30C G54C it is 0.173.
Regarding G51U U55G, the self-cleavage was 0.222.
With A44U A71U the figure was 0.256; with A30U G51A, 0.104.
Take G17U U33C: the self-cleavage worked out at 0.0633.
The figure for U55G G56U is 0.211.
With U14C U52C the figure was 0.938; with C16U A28C, 0.565; with A26C U33C, 0.143.
The figure for G57C G69A is 0.135; for G21U C50G it is 0.328.
With U9G, the self-cleavage came out at 0.701.
With A36U G68U, the self-cleavage is 0.118.
The figure for A31G A59C is 0.173; for G40A U53G it is 0.169.
The figure for U5A C16A is 0.281; for G21C A41C it is 0.957; for A43C C50A it is 0.162.
Turning to A31C U58A, the self-cleavage amounted to 0.171.
With A23C U70C the figure was 1.06.
With A36C U67C the figure was 0.102; with C3U A28G, 0.554.
With G32U U63G the figure was 0.113; with G1C G19U, 0.194; with G21U G51C, 0.859.
Consider A26U A31C, for which the self-cleavage worked out at 0.171.
The figure for C12A A47C is 0.329; for G13C A23C it is 0.364.
With G15A U52G the figure was 0.641.
The figure for U20A A23U is 0.785; for U2C A35G it is 0.243; for U60G U63C it is 0.171.
Regarding G27U U70A, the self-cleavage came out at 0.172.
With C18G C50G the figure was 0.176; with C38A G56C, 0.136.
With G25C G27C the figure was 0.171; with U5A A24G, 0.381.
The figure for A24C A43C is 0.0956.
As for G34C U58A, the self-cleavage stood at 1.27.
On to G56U U70C, for which the self-cleavage was 0.271.
The figure for U8C C48G is 0.155; for U20C U60C it is 0.724; for U7A A39G it is 0.318.
With G19U A39C the figure was 0.502; with C10U G57C, 0.187.
The figure for G19A G68A is 0.265; for G19A C38G it is 0.159; for G1A G13A it is 0.161.
As for A28C A43C, the self-cleavage worked out at 0.125.
With C6G U60C the figure was 0.618; with G42A A45U, 0.109; with C38U A47C, 0.276.
The figure for A26C A39C is 0.47; for A45U U67G it is 0.131; for G1U C3U it is 0.255.
As to U7A A35G, the self-cleavage turned out to be 0.796.
Take C48U C65G: the self-cleavage was 0.0909.
Turning to C6U A22G, the self-cleavage amounted to 0.796.
